Reference: patent US20250197493A1

What was measured:
[1] = target: cell membrane-expressed human LAG-3 (human) (UniProt P18627); experiment: flow cytometry, SEB-activated human PBMCs, CD4 T cells, percent of cells bound (isotype control)
[2] = target: cell membrane-expressed cynomolgus LAG-3 (cynomolgus monkey); experiment: flow cytometry, SEB-activated cynomolgus PBMCs, CD8 T cells, percent of cells bound (isotype control)
[3] = target: cell membrane-expressed cynomolgus LAG-3 (cynomolgus monkey); experiment: flow cytometry, SEB-activated cynomolgus PBMCs, CD4 T cells, percent of cells bound (isotype control)
[4] = target: cell membrane-expressed human LAG-3 (human) (UniProt P18627); experiment: flow cytometry, SEB-activated human PBMCs, CD8 T cells, percent of cells bound (isotype control)

Sequence of cell membrane-expressed human LAG-3 (human) (P18627 23-525 limits assumed): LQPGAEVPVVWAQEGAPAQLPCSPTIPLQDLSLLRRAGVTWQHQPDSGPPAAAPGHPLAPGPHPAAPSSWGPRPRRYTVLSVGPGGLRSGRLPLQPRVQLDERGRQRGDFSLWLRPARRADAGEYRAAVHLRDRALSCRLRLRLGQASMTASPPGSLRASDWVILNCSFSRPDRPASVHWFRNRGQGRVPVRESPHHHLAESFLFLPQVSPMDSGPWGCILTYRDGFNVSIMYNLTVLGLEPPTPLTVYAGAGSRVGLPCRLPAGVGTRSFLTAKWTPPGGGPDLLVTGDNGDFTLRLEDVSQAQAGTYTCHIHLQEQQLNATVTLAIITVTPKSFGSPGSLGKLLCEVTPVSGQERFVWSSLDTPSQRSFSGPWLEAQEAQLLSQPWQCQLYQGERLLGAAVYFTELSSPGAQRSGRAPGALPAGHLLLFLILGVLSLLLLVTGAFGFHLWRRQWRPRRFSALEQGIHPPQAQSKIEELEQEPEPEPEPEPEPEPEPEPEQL

- EC50 [1]: 0.39 µg/mL
- EC50 [2]: 8.66 µg/mL
- EC50 [3]: 2450 µg/mL
- EC50 [4]: 0.676 µg/mL
Substance: Isotype hG1 (antibody)
